Measurements published in the Human Domainome abundance scans (Beltran et al. 2025).

B1: Ventral anterior homeobox 1, residues 102 to 157; numbered along this chain, Q5SQQ9 (parent)
chain: RTRTSFTAEQLYRLEMEFQRCQYVVGRERTELARQLNLSETQVKVWFQNRRTKQKK

Variants of: B1
Experiment: abundance fitness (aPCA) (normalised: wild type 0, dead -1); higher = more abundant; growth selection in yeast, the domain comes from the species named
Conditions: Homo sapiens

Abundance fitness of substitutions, site by site:
Y23: D -0.164 | E 0.012 | F -0.088 | G -0.21 | H 0.04 | I -0.117 | K 0.051 | L 0.055 | M 0.181 | N 0.069 | Q 0.132 | S 0.03 | V -0.045 | W -0.527
V24: A -0.12 | C 0.12 | D -0.347 | E -0.367 | F -0.408 | G -0.436 | H -0.307 | I -0.086 | L 0.059 | M -0.16 | N -0.25 | P -0.167 | Q -0.559 | R -0.243 | S -0.09 | T -0.074 | W -0.416 | Y -0.421
V25: A 0.042 | C 0.114 | E 0.204 | F -0.073 | G 0.003 | H -0.011 | I -0.226 | K -0.18 | M -0.396 | N -0.326 | P -0.29 | Q 0.121 | R -0.16 | S -0.071 | T -0.087 | W -0.633 | Y -0.377
G26: A -0.155 | C -0.547 | D -0.153 | E -0.249 | F -0.278 | H -0.413 | I -0.63 | K -0.15 | L -0.297 | M -0.351 | N -0.318 | P -0.208 | Q -0.23 | S -0.151 | T -0.453 | V -0.577 | W -0.892 | Y -0.342
R27: A 0.07 | C -0.026 | E 0.167 | F -0.141 | G 0.003 | H -0.245 | I 0.19 | K -0.045 | L -0.049 | N 0.156 | P 0.008 | Q 0.009 | S 0.18 | T 0.013 | V -0.01 | Y -0.108
E28: A -0.318 | C -0.412 | D -0.077 | F -0.513 | G -0.39 | H -0.318 | I -0.657 | K -0.78 | L -0.369 | M -0.446 | N -0.459 | P -0.171 | Q -0.394 | R -0.596 | S -0.338 | T -0.247 | V -0.419 | W -0.483 | Y -0.661
T30: A -0.102 | D -0.468 | E 0.018 | G -0.215 | H -0.261 | I -0.211 | K -0.19 | L -0.427 | M -0.225 | N -0.097 | P -0.677 | Q -0.329 | R -0.429 | V -0.064 | W -0.117
E31: C -0.683 | D -0.234 | F -0.795 | G -0.454 | H -0.468 | I -0.399 | K -0.592 | L -0.5 | N 0.028 | P -0.662 | Q -0.347 | R -0.657 | S -0.386 | T -0.243 | V -0.315 | W -0.721 | Y -1.04
L32: A -0.791 | C -0.777 | G -1.21 | K -0.641 | M -0.314 | Q -0.959 | R -0.826 | V -0.542 | W -1.04
A33: C -0.295 | D -0.938 | E -0.905 | G -0.375 | H -0.925 | L -0.693 | N -0.897 | P -0.997 | Q -0.989 | R -0.992 | S -0.115 | T -0.557 | V -0.786 | W -0.483 | Y -0.692
R34: A 0.179 | C -0.395 | D -0.203 | E -0.235 | I -0.325 | K -0.197 | L -0.273 | M -0.256 | P -0.907
